B1: multimerin-1 (MMRN1): T216A (protein)
parent chain: MKGARLFVLLSSLWSGGIGLNNSKHSWTIPEDGNSQKTMPSASVPPNKIQSLQILPTTRVMSAEIATTPEARTSEDSLLKSTLPPSETSAPAEGVRNQTLTSTEKAEGVVKLQNLTLPTNASIKFNPGAESVVLSNSTLKFLQSFARKSNEQATSLNTVGGTGGIGGVGGTGGVGNRAPRETYLSRGDSSSSQRTDYQKSNFETTRGKNWCAYVHTRLSPTVILDNQVTYVPGGKGPCGWTGGSCPQRSQKISNPVYRMQHKIVTSLDWRCCPGYSGPKCQLRAQEQQSLIHTNQAESHTAVGRGVAEQQQQQGCGDPEVMQKMTDQVNYQAMKLTLLQKKIDNISLTVNDVRNTYSSLEGKVSEDKSREFQSLLKGLKSKSINVLIRDIVREQFKIFQNDMQETVAQLFKTVSSLSEDLESTRQIIQKVNESVVSIAAQQKFVLVQENRPTLTDIVELRNHIVNVRQEMTLTCEKPIKELEVKQTHLEGALEQEHSRSILYYESLNKTLSKLKEVHEQLLSTEQVSDQKNAPAAESVSNNVTEYMSTLHENIKKQSLMMLQMFEDLHIQESKINNLTVSLEMEKESLRGECEDMLSKCRNDFKFQLKDTEENLHVLNQTLAEVLFPMDNKMDKMSEQLNDLTYDMEILQPLLEQGASLRQTMTYEQPKEAIVIRKKIENLTSAVNSLNFIIKELTKRHNLLRNEVQGRDDALERRINEYALEMEDGLNKTMTIINNAIDFIQDNYALKETLSTIKDNSEIHHKCTSDMETILTFIPQFHRLNDSIQTLVNDNQRYNFVLQVAKTLAGIPRDEKLNQSNFQKMYQMFNETTSQVRKYQQNMSHLEEKLLLTTKISKNFETRLQDIESKVTQTLIPYYISVKKGSVVTNERDQALQLQVLNSRFKALEAKSIHLSINFFSLNKTLHEVLTMCHNASTSVSELNATIPKWIKHSLPDIQLLQKGLTEFVEPIIQIKTQAALSNLTCCIDRSLPGSLANVVKSQKQVKSLPKKINALKKPTVNLTTVLIGRTQRNTDNIIYPEEYSSCSRHPCQNGGTCINGRTSFTCACRHPFTGDNCTIKLVEENALAPDFSKGSYRYAPMVAFFASHTYGMTIPGPILFNNLDVNYGASYTPRTGKFRIPYLGVYVFKYTIESFSAHISGFLVVDGIDKLAFESENINSEIHCDRVLTGDALLELNYGQEVWLRLAKGTIPAKFPPVTTFSGYLLYRT
B2: multimerin-1 (MMRN1): POFUT1 KO (protein)
parent chain: MKGARLFVLLSSLWSGGIGLNNSKHSWTIPEDGNSQKTMPSASVPPNKIQSLQILPTTRVMSAEIATTPEARTSEDSLLKSTLPPSETSAPAEGVRNQTLTSTEKAEGVVKLQNLTLPTNASIKFNPGAESVVLSNSTLKFLQSFARKSNEQATSLNTVGGTGGIGGVGGTGGVGNRAPRETYLSRGDSSSSQRTDYQKSNFETTRGKNWCAYVHTRLSPTVILDNQVTYVPGGKGPCGWTGGSCPQRSQKISNPVYRMQHKIVTSLDWRCCPGYSGPKCQLRAQEQQSLIHTNQAESHTAVGRGVAEQQQQQGCGDPEVMQKMTDQVNYQAMKLTLLQKKIDNISLTVNDVRNTYSSLEGKVSEDKSREFQSLLKGLKSKSINVLIRDIVREQFKIFQNDMQETVAQLFKTVSSLSEDLESTRQIIQKVNESVVSIAAQQKFVLVQENRPTLTDIVELRNHIVNVRQEMTLTCEKPIKELEVKQTHLEGALEQEHSRSILYYESLNKTLSKLKEVHEQLLSTEQVSDQKNAPAAESVSNNVTEYMSTLHENIKKQSLMMLQMFEDLHIQESKINNLTVSLEMEKESLRGECEDMLSKCRNDFKFQLKDTEENLHVLNQTLAEVLFPMDNKMDKMSEQLNDLTYDMEILQPLLEQGASLRQTMTYEQPKEAIVIRKKIENLTSAVNSLNFIIKELTKRHNLLRNEVQGRDDALERRINEYALEMEDGLNKTMTIINNAIDFIQDNYALKETLSTIKDNSEIHHKCTSDMETILTFIPQFHRLNDSIQTLVNDNQRYNFVLQVAKTLAGIPRDEKLNQSNFQKMYQMFNETTSQVRKYQQNMSHLEEKLLLTTKISKNFETRLQDIESKVTQTLIPYYISVKKGSVVTNERDQALQLQVLNSRFKALEAKSIHLSINFFSLNKTLHEVLTMCHNASTSVSELNATIPKWIKHSLPDIQLLQKGLTEFVEPIIQIKTQAALSNLTCCIDRSLPGSLANVVKSQKQVKSLPKKINALKKPTVNLTTVLIGRTQRNTDNIIYPEEYSSCSRHPCQNGGTCINGRTSFTCACRHPFTGDNCTIKLVEENALAPDFSKGSYRYAPMVAFFASHTYGMTIPGPILFNNLDVNYGASYTPRTGKFRIPYLGVYVFKYTIESFSAHISGFLVVDGIDKLAFESENINSEIHCDRVLTGDALLELNYGQEVWLRLAKGTIPAKFPPVTTFSGYLLYRT
B3: multimerin-1 (MMRN1): T1055A (protein)
parent chain: MKGARLFVLLSSLWSGGIGLNNSKHSWTIPEDGNSQKTMPSASVPPNKIQSLQILPTTRVMSAEIATTPEARTSEDSLLKSTLPPSETSAPAEGVRNQTLTSTEKAEGVVKLQNLTLPTNASIKFNPGAESVVLSNSTLKFLQSFARKSNEQATSLNTVGGTGGIGGVGGTGGVGNRAPRETYLSRGDSSSSQRTDYQKSNFETTRGKNWCAYVHTRLSPTVILDNQVTYVPGGKGPCGWTGGSCPQRSQKISNPVYRMQHKIVTSLDWRCCPGYSGPKCQLRAQEQQSLIHTNQAESHTAVGRGVAEQQQQQGCGDPEVMQKMTDQVNYQAMKLTLLQKKIDNISLTVNDVRNTYSSLEGKVSEDKSREFQSLLKGLKSKSINVLIRDIVREQFKIFQNDMQETVAQLFKTVSSLSEDLESTRQIIQKVNESVVSIAAQQKFVLVQENRPTLTDIVELRNHIVNVRQEMTLTCEKPIKELEVKQTHLEGALEQEHSRSILYYESLNKTLSKLKEVHEQLLSTEQVSDQKNAPAAESVSNNVTEYMSTLHENIKKQSLMMLQMFEDLHIQESKINNLTVSLEMEKESLRGECEDMLSKCRNDFKFQLKDTEENLHVLNQTLAEVLFPMDNKMDKMSEQLNDLTYDMEILQPLLEQGASLRQTMTYEQPKEAIVIRKKIENLTSAVNSLNFIIKELTKRHNLLRNEVQGRDDALERRINEYALEMEDGLNKTMTIINNAIDFIQDNYALKETLSTIKDNSEIHHKCTSDMETILTFIPQFHRLNDSIQTLVNDNQRYNFVLQVAKTLAGIPRDEKLNQSNFQKMYQMFNETTSQVRKYQQNMSHLEEKLLLTTKISKNFETRLQDIESKVTQTLIPYYISVKKGSVVTNERDQALQLQVLNSRFKALEAKSIHLSINFFSLNKTLHEVLTMCHNASTSVSELNATIPKWIKHSLPDIQLLQKGLTEFVEPIIQIKTQAALSNLTCCIDRSLPGSLANVVKSQKQVKSLPKKINALKKPTVNLTTVLIGRTQRNTDNIIYPEEYSSCSRHPCQNGGTCINGRTSFTCACRHPFTGDNCTIKLVEENALAPDFSKGSYRYAPMVAFFASHTYGMTIPGPILFNNLDVNYGASYTPRTGKFRIPYLGVYVFKYTIESFSAHISGFLVVDGIDKLAFESENINSEIHCDRVLTGDALLELNYGQEVWLRLAKGTIPAKFPPVTTFSGYLLYRT
B4: multimerin-1 (MMRN1): POFUT2 KO (protein)
parent chain: MKGARLFVLLSSLWSGGIGLNNSKHSWTIPEDGNSQKTMPSASVPPNKIQSLQILPTTRVMSAEIATTPEARTSEDSLLKSTLPPSETSAPAEGVRNQTLTSTEKAEGVVKLQNLTLPTNASIKFNPGAESVVLSNSTLKFLQSFARKSNEQATSLNTVGGTGGIGGVGGTGGVGNRAPRETYLSRGDSSSSQRTDYQKSNFETTRGKNWCAYVHTRLSPTVILDNQVTYVPGGKGPCGWTGGSCPQRSQKISNPVYRMQHKIVTSLDWRCCPGYSGPKCQLRAQEQQSLIHTNQAESHTAVGRGVAEQQQQQGCGDPEVMQKMTDQVNYQAMKLTLLQKKIDNISLTVNDVRNTYSSLEGKVSEDKSREFQSLLKGLKSKSINVLIRDIVREQFKIFQNDMQETVAQLFKTVSSLSEDLESTRQIIQKVNESVVSIAAQQKFVLVQENRPTLTDIVELRNHIVNVRQEMTLTCEKPIKELEVKQTHLEGALEQEHSRSILYYESLNKTLSKLKEVHEQLLSTEQVSDQKNAPAAESVSNNVTEYMSTLHENIKKQSLMMLQMFEDLHIQESKINNLTVSLEMEKESLRGECEDMLSKCRNDFKFQLKDTEENLHVLNQTLAEVLFPMDNKMDKMSEQLNDLTYDMEILQPLLEQGASLRQTMTYEQPKEAIVIRKKIENLTSAVNSLNFIIKELTKRHNLLRNEVQGRDDALERRINEYALEMEDGLNKTMTIINNAIDFIQDNYALKETLSTIKDNSEIHHKCTSDMETILTFIPQFHRLNDSIQTLVNDNQRYNFVLQVAKTLAGIPRDEKLNQSNFQKMYQMFNETTSQVRKYQQNMSHLEEKLLLTTKISKNFETRLQDIESKVTQTLIPYYISVKKGSVVTNERDQALQLQVLNSRFKALEAKSIHLSINFFSLNKTLHEVLTMCHNASTSVSELNATIPKWIKHSLPDIQLLQKGLTEFVEPIIQIKTQAALSNLTCCIDRSLPGSLANVVKSQKQVKSLPKKINALKKPTVNLTTVLIGRTQRNTDNIIYPEEYSSCSRHPCQNGGTCINGRTSFTCACRHPFTGDNCTIKLVEENALAPDFSKGSYRYAPMVAFFASHTYGMTIPGPILFNNLDVNYGASYTPRTGKFRIPYLGVYVFKYTIESFSAHISGFLVVDGIDKLAFESENINSEIHCDRVLTGDALLELNYGQEVWLRLAKGTIPAKFPPVTTFSGYLLYRT

Key:
[1] = anti-Myc Western of HEK293T medium, IgG-normalised; conditions: glycan lost; control: MMRN1 WT-Myc
[2] = anti-Myc Western of medium, IgG-normalised; conditions: glycan lost; control: WT HEK293T cells

Protein | expression_or_secretion [1] | expression_or_secretion [2]
B1 | decreases | –
B2 | – | abolishes
B3 | decreases | –
B4 | – | no change

Source: paper PMC10879016
